Test [1] concerns the target CHD4 PHD2 finger, wild type (UniProt Q14839). Briefly: other fluorescence titration + NMR titration.
For test [2] the target is unchanged. The test can be described thus: other fluorescence titration.
The target in a further test is CHD4 PHD2 finger C460W (UniProt Q14839). The test can be described thus: NMR titration.
Another test deals with CHD4 PHD2 finger E447A (UniProt Q14839). The test can be described thus: NMR titration.

As usually defined, the Kd is the equilibrium constant for the complex coming apart.

With H3K4me1 peptide (affinity measurements), the Kd in test [1] was determined as 300 µM.
As to H3K4me2 peptide (affinity measurements), the Kd in test [1] came to 1000 µM.
As for H3K9ac peptide (20-mer), the Kd in test [2] came to 0.6 µM.
“H3K9me3 peptide (12-mer histone tail peptide)”: the Kd in test [2] came out at 0.9 µM.
Turning to “histone H3 peptide in which the primary amino group of Ala1 was acetylated”, the Kd in test [1] was 400 µM.
Regarding “unmodified H3 peptide (12-mer histone tail peptide)”, the Kd in the test with CHD4 PHD2 finger C460W is 3700 µM; with CHD4 PHD2 finger E447A, 900 µM.
